The record followed here is patent publication US20220395553A1 (COHBAR, published 2022).

Square brackets hold non-standard residues; d marks the D form. Ends that are not written are not given here. Bounds are passed on as bounds.

Assay [1] concerns the target CXCR4 on cultured U937 and Jurkat cells (human, UniProt P61073 1-352). Description: cell-based or functional assay.
Assay [2] has as its target ProLink tagged human CXCR4 (C2C12 CXCR4 β-Arrestin cell line) (human, UniProt P61073 1-352). The assay can be described thus: cell-based or functional assay.
The target in assay [3] is T1, SNAP tagged-CXC4 receptor labeled with terbium (Tag-lite CXCR4 cells, HEK293) (UniProt P61073 1-352, SNAP tag labeled with terbium fluorescent dye).
T1 construct: whole, on cells; Bought frozen cells (PerkinElmer-CisBio), HEK293 transiently expressing the receptor; also called terbium labeled CXCR receptor
T1 sequence (P61073 whole entry): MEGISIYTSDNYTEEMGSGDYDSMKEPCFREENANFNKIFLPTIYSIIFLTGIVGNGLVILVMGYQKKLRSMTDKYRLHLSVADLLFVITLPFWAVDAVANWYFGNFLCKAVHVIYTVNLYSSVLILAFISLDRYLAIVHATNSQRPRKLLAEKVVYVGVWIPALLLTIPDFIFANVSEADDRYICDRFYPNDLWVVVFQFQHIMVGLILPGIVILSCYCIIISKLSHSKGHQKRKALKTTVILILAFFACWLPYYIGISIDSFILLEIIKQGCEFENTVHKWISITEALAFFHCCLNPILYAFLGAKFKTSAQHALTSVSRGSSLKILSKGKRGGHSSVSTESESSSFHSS
Description: HTRF competition on Tag-lite CXCR4 HEK293 cells; competitor labelled CXCL12. The method, then:
Peptides were initially prepared as 1 mM stock in H₂O and tested at a final concentration of 400 nM. Following the manufacture's protocol, a frozen aliquot of Tag-lite CXCR4 cells was thawed and immediately seeded onto 384-well plates in TLB. Immediately following the addition of cells, 400 nM peptide (final concentration) in TLB was added to the appropriate well. […] The plates were covered in aluminum foil and left at room temperature for 3 hours. Following the 3 hour incubation period, the plates were removed from the incubator and fluorescence measured using a Cytation 1 plate reader using a HTRF filter cube ([…]; BioTek; Winooski, Vt.).

Sequence of ProLink tagged human CXCR4 (C2C12 CXCR4 β-Arrestin cell line) (P61073 whole entry): as above
Sequence of CXCR4 on cultured U937 and Jurkat cells (P61073 whole entry): as above

B1: SEQ ID NO: 40 (peptide)
peptide: LERYHHT[dA]RSSLRPYTK
On to B1, for which, in assay [1], the “Percent Inhibition of CXCR4/CXCL12 Induced p-MEK (100 nM Test Article)” value came out at 33% and the “Percent Inhibition of CXCR4/CXCL12 Induced p-MEK (1 µM Test Article)” value came to 94%. The “IC50 for Inhibition of CXCR4 Activation (β-Arrestin recruitment)” value (“IC50 for Inhibition of CXCR4 Activation” for short) in assay [2] is 5 nM.

B2: SEQ ID NO: 6 (peptide)
peptide: LRRYHHS[dA]RSSLRPYTK
For B2, the “Percent Inhibition of CXCR4/CXCL12 Binding (400 nM peptide)” value in assay [3] is -10%. For the same molecule, in assay [2], the “IC50 for Inhibition of CXCR4 Activation” value was 8 nM.

B3: SEQ ID NO: 25 (peptide)
peptide: LRRYHHSVRSSLRPY
As for B3, the “Percent Inhibition of CXCR4/CXCL12 Binding (400 nM peptide)” value in assay [3] is 0%. Besides, in assay [2], the “IC50 for Inhibition of CXCR4 Activation” value stood at 51 nM.

B4: SEQ ID NO: 32 (peptide)
peptide: LREYHHS[dA]RSSLRPYTK
Take B4: the “Percent Inhibition of CXCR4/CXCL12 Binding (400 nM peptide)” value in assay [3] is -18%. Moreover, in assay [2], the “IC50 for Inhibition of CXCR4 Activation” value was greater than 1000 nM.

B5: SEQ ID NO: 46 (peptide)
peptide: LERYHNS[dA]RSSLRPYTK
Consider B5, for which, in assay [3], the “Percent Inhibition of CXCR4/CXCL12 Binding (400 nM peptide)” value is -4%. For the same molecule, the “IC50 for Inhibition of CXCR4 Activation” value in assay [2] was 187 nM.

B6: SEQ ID NO: 44 (peptide)
peptide: LRRYHNSVRSSLRPYTK
B6: the “Percent Inhibition of CXCR4/CXCL12 Binding (400 nM peptide)” value in assay [3] came to 0%. The “IC50 for Inhibition of CXCR4 Activation” value in assay [2] was found to be 32 nM.

B7: SEQ ID NO: 12 (peptide)
peptide: YHHSVRSSLRPYTK
For the molecule B7, the “Percent Inhibition of CXCR4/CXCL12 Binding (400 nM peptide)” value in assay [3] was -13%. The “IC50 for Inhibition of CXCR4 Activation” value in assay [2] was greater than 1000 nM.

B8: SEQ ID NO: 47 (peptide)
peptide: LRRYQHSVRSSLRPYTK
In the case of B8, the “Percent Inhibition of CXCR4/CXCL12 Binding (400 nM peptide)” value in assay [3] came out at 5%. The “IC50 for Inhibition of CXCR4 Activation” value in assay [2] was 11 nM.

B9: SEQ ID NO: 11 (peptide)
peptide: RYHHSVRSSLRPYTK
Regarding B9, the “Percent Inhibition of CXCR4/CXCL12 Binding (400 nM peptide)” value in assay [3] is -9%. Also, in assay [2], the “IC50 for Inhibition of CXCR4 Activation” value stood at 175 nM.

B10: SEQ ID NO: 15 (peptide)
peptide: SVRSSLRPYTK
As to B10, the “Percent Inhibition of CXCR4/CXCL12 Binding (400 nM peptide)” value in assay [3] is -11%. Moreover, the “IC50 for Inhibition of CXCR4 Activation” value in assay [2] is greater than 1000 nM.

B11: SEQ ID NO: 10 (peptide)
peptide: RRYHHSVRSSLRPYTK
On to B11, for which the “Percent Inhibition of CXCR4/CXCL12 Binding (400 nM peptide)” value in assay [3] is -8%. For the same molecule, the “IC50 for Inhibition of CXCR4 Activation” value in assay [2] amounted to 103 nM.

B12: SEQ ID NO: 42 (peptide)
peptide: LERYNHSVRSSLRPYTK
As for B12, the “Percent Inhibition of CXCR4/CXCL12 Binding (400 nM peptide)” value in assay [3] turned out to be 32%. In addition, the “IC50 for Inhibition of CXCR4 Activation” value in assay [2] was found to be 22 nM.

B13: SEQ ID NO: 62 (peptide)
peptide: LRRYHHSVESSLRPYTK
B13: the “Percent Inhibition of CXCR4/CXCL12 Binding (400 nM peptide)” value in assay [3] came out at 4%. Moreover, the “IC50 for Inhibition of CXCR4 Activation” value in assay [2] was 64 nM.

B14: SEQ ID NO: 31 (peptide)
peptide: LREYHHSVRSSLRPYTK
For B14, the “Percent Inhibition of CXCR4/CXCL12 Binding (400 nM peptide)” value in assay [3] is -16%. In addition, the “IC50 for Inhibition of CXCR4 Activation” value in assay [2] is greater than 1000 nM.

B15: SEQ ID NO: 68 (peptide)
peptide: LRRYHHS[dA]DSSLRPYTK
For the molecule B15, the “Percent Inhibition of CXCR4/CXCL12 Binding (400 nM peptide)” value in assay [3] is -10%. For the same molecule, in assay [2], the “IC50 for Inhibition of CXCR4 Activation” value worked out at 13 nM.

B16: SEQ ID NO: 24 (peptide)
peptide: LRRYHHSVRSSLRPYT
With B16, the “Percent Inhibition of CXCR4/CXCL12 Binding (400 nM peptide)” value in assay [3] is 8%. Moreover, the “IC50 for Inhibition of CXCR4 Activation” value in assay [2] was 102 nM.

B17: SEQ ID NO: 13 (peptide)
peptide: HHSVRSSLRPYTK
For B17, in assay [3], the “Percent Inhibition of CXCR4/CXCL12 Binding (400 nM peptide)” value is -10%. For the same molecule, the “IC50 for Inhibition of CXCR4 Activation” value in assay [2] was greater than 1000 nM.

B18: SEQ ID NO: 27 (peptide)
peptide: LRRYHHSVRSSLR
For the molecule B18, the “Percent Inhibition of CXCR4/CXCL12 Binding (400 nM peptide)” value in assay [3] was determined as 10%. Besides, in assay [2], the “IC50 for Inhibition of CXCR4 Activation” value is 34 nM.

B19: SEQ ID NO: 45 (peptide)
peptide: LERYHNSVRSSLRPYTK
On to B19, for which the “Percent Inhibition of CXCR4/CXCL12 Binding (400 nM peptide)” value in assay [3] came out at 1%. Besides, the “IC50 for Inhibition of CXCR4 Activation” value in assay [2] worked out at 121 nM.

B20: SEQ ID NO: 26 (peptide)
peptide: LRRYHHSVRSSLRP
As for B20, in assay [3], the “Percent Inhibition of CXCR4/CXCL12 Binding (400 nM peptide)” value is 1%. For the same molecule, the “IC50 for Inhibition of CXCR4 Activation” value in assay [2] was 67 nM.

B21: SEQ ID NO: 63 (peptide)
peptide: LRRYHHSVRSSLEPYTK
For the molecule B21, the “Percent Inhibition of CXCR4/CXCL12 Binding (400 nM peptide)” value in assay [3] was 9%. Also, the “IC50 for Inhibition of CXCR4 Activation” value in assay [2] is 14 nM.

B22: SEQ ID NO: 48 (peptide)
peptide: LERYQHSVRSSLRPYTK
As for B22, in assay [3], the “Percent Inhibition of CXCR4/CXCL12 Binding (400 nM peptide)” value was 13%. For the same molecule, the “IC50 for Inhibition of CXCR4 Activation” value in assay [2] turned out to be 53 nM.

B23: SEQ ID NO: 64 (peptide)
peptide: LRRYHHS[dA]ESSLRPYTK
For the molecule B23, the “Percent Inhibition of CXCR4/CXCL12 Binding (400 nM peptide)” value in assay [3] is -6%. The “IC50 for Inhibition of CXCR4 Activation” value in assay [2] was found to be 14 nM.

B24: SEQ ID NO: 37 (peptide)
peptide: LRDYHHS[dA]RSSLRPYTK
Turning to B24, in assay [3], the “Percent Inhibition of CXCR4/CXCL12 Binding (400 nM peptide)” value was -14%. Besides, the “IC50 for Inhibition of CXCR4 Activation” value in assay [2] was greater than 1000 nM.

B25: SEQ ID NO: 69 (peptide)
peptide: LRRYHHS[dA]RSSLDPYTK
On to B25, for which the “Percent Inhibition of CXCR4/CXCL12 Binding (400 nM peptide)” value in assay [3] was -5%. Moreover, the “IC50 for Inhibition of CXCR4 Activation” value in assay [2] amounted to 63 nM.

B26: SEQ ID NO: 28 (peptide)
peptide: LRRYHHSVRSSL
With B26, in assay [3], the “Percent Inhibition of CXCR4/CXCL12 Binding (400 nM peptide)” value was determined as 12%. Further, the “IC50 for Inhibition of CXCR4 Activation” value in assay [2] is 4 nM.

B27: SEQ ID NO: 41 (peptide)
peptide: LRRYNHSVRSSLRPYTK
Regarding B27, in assay [3], the “Percent Inhibition of CXCR4/CXCL12 Binding (400 nM peptide)” value is -2%. In assay [2], the “IC50 for Inhibition of CXCR4 Activation” value came out at 4 nM.

B28: SEQ ID NO: 14 (peptide)
peptide: HSVRSSLRPYTK
B28: the “Percent Inhibition of CXCR4/CXCL12 Binding (400 nM peptide)” value in assay [3] is -15%. In addition, the “IC50 for Inhibition of CXCR4 Activation” value in assay [2] is greater than 1000 nM.

B29: SEQ ID NO: 29 (peptide)
peptide: LRRYHHSVRSS
For B29, the “Percent Inhibition of CXCR4/CXCL12 Binding (400 nM peptide)” value in assay [3] stood at 14%. Further, the “IC50 for Inhibition of CXCR4 Activation” value in assay [2] was 46 nM.

B30: SEQ ID NO: 65 (peptide)
peptide: LRRYHHS[dA]RSSLEPYTK
For the molecule B30, in assay [3], the “Percent Inhibition of CXCR4/CXCL12 Binding (400 nM peptide)” value is -5%. For the same molecule, the “IC50 for Inhibition of CXCR4 Activation” value in assay [2] worked out at 40 nM.
